According to PMC8828441:

Target: ADDomer-SpyTag (human adenovirus type 3)
Assay: covalent SpyTag/SpyCatcher adduct on SDS-PAGE

Substance: SpyCatcher
- stoichiometry N (copies per particle): 60
